The test concerns the target V5 epitope tagged Sag1p fragment fusion displayed on the cell surface of Pichia pastoris (vectors without insert, s1-V5-SAG1 constructs) (S. cerevisiae) (UniProt P20840). Nature of the test: flow cytometry, FITC anti-V5 staining of plate-grown SuperMan5 cells with GAP and UP promoter constructs (5 isolates each). (In general: In flow cytometry, cells or beads pass a laser one at a time.)
Sequence of UniProt P20840 (P20840 331-650): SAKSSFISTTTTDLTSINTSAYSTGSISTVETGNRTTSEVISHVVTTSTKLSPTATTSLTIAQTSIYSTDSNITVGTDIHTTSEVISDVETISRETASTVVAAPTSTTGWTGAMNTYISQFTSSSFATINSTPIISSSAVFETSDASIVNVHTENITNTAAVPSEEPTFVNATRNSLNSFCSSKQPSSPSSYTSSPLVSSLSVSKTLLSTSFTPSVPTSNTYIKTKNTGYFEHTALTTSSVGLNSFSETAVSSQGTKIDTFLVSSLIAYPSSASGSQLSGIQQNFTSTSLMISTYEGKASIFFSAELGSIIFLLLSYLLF

The substance “FITC-labeled anti-V5 (Abcam, V5-tag-antibody-FITC-ab1209)” came in with an FITC signal against unlabeled cells (orders of magnitude) of 2.

For the origin of these results see patent US20170002346A1.
